Test results taken from patent US20190085055A1.
Where “and” joins values, the source holds several entries; their conditions need not be identical. Equal values may be shown once. Each block holds one substance with its values, some of them ahead of it.

Legend:
[1] = biological target: tissue factor extracellular domains (human) (UniProt P13726); assay: SPR, TF immobilised, purified Fab as analyte, 1:1 model
[2] = biological target: D3H44 light chain F116A_L135V; assay: LCCA (SPR), competitor L1 L135W
[3] = biological target: D3H44 light chain F116A_L135A; assay: LCCA (SPR), competitor L1 L135W
[4] = biological target: D3H44 light chain F116A_L135A; assay: LCCA (SPR), competitor L1 L135W_N137A
[5] = biological target: D3H44 light chain L135W; assay: LCCA (SPR), competitor L2 F116A_L135A
Chain of D3H44 light chain L135W (light, as listed by the source): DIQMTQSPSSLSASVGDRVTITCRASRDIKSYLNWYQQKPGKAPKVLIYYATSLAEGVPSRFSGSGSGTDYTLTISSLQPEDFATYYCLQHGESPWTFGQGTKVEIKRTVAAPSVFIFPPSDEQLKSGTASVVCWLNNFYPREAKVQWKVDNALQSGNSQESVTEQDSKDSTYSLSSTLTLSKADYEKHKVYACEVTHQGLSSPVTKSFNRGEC

[6] = biological target: D3H44 light chain L135W_N137A; assay: LCCA (SPR), competitor L2 F116A_L135A
[7] = biological target: D3H44 light chain L135W; assay: LCCA (SPR), competitor L2 F116A_L135V
[8] = biological target: D3H44 light chain F118W_V133S; assay: LCCA (SPR), competitor L1 WT
[9] = biological target: D3H44 light chain, wild type; assay: LCCA (SPR), competitor L2 F118W_V133S
Chain of D3H44 light chain, wild type (light, as listed by the source): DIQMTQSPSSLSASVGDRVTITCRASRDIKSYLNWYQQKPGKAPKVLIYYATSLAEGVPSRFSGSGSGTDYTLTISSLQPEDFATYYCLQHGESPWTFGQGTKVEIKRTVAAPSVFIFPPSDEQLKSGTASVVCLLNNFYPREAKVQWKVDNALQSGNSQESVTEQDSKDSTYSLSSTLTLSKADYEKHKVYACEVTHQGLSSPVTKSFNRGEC

[10] = biological target: D3H44 light chain F118W_V133S; assay: LCCA (SPR), competitor L1 F116A
[11] = biological target: D3H44 light chain F116A; assay: LCCA (SPR), competitor L2 F118W_V133S
[12] = biological target: D3H44 light chain F116A; assay: LCCA (SPR), competitor L1 WT
[13] = biological target: D3H44 light chain, wild type; assay: LCCA (SPR), competitor L2 F116A

Chain of tissue factor extracellular domains (human) (P13726 33-251): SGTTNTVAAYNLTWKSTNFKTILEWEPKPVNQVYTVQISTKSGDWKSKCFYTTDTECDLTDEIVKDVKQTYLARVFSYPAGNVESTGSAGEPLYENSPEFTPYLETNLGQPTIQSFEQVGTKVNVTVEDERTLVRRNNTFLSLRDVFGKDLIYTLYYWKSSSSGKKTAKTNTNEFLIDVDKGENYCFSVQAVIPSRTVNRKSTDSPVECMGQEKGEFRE

Kd [1]: 0.043 nM
Substance: D3H44 Fab Design 11 H1-L1 (H1 S188L_V190Y, L1 V133S)

Kd [1]: 0.04 nM
Substance: D3H44 Fab Design 11 H2-L2 (H2 F174V_P175S_S188G, L2 S176L)

Kd [1]: 0.087 nM
Substance: D3H44 Fab Design 13 H1-L1 (H1 L143A_D144G_Q179R, L1 Q124E_V133W_Q160E_T180E)

Kd [1]: 0.086 nM
Substance: D3H44 Fab Design 13 H2-L2 (H2 K145T_Q179D_S188F, L2 V133A_Q160K_T178R)

Kd [1]: 0.082 nM
Substance: D3H44 Fab Design 15 H1-L1 (H1 D146G_Q179R, L1 Q124E_Q160E_T178D)

Kd [1]: 0.071 nM
Substance: D3H44 Fab Design 15 H2-L2 (H2 K145T_Q179D_S188L, L2 Q160K_T178R)

Kd [1]: 0.024 nM
Substance: D3H44 Fab Design 30 H1-L1 (H1 D148G_Q175K, L1 Q124E_Q160E_T180E)

Kd [1]: 0.06 nM
Substance: D3H44 Fab Design 30 H2-L2 (H2 L145E_K147T, L2 Q160K_T178R)

Kd [1]: 0.025 nM
Substance: D3H44 Fab Design 31 H1-L1 (H1 Q39D_A141G_V185A, L1 Q38R_L135W)

H1 L2 of H1 L1:H1 L2 (screen) [2]: 13.8
H1 L2 of H1 L1:H1 L2 (verification) [2]: 48.3
H1 L2 of H1 L1:H1 L2 (screen) [3]: 10.1
H1 L2 of H1 L1:H1 L2 (verification) [3]: 10.6
H1 L2 of H1 L1:H1 L2 (screen) [4]: 5.16
H1 L1 of H1 L1:H1 L2 (screen) [5]: 65
H1 L1 of H1 L1:H1 L2 (verification) [5]: 69.5
H1 L1 of H1 L1:H1 L2 (screen) [6]: 70.5
H1 L1 of H1 L1:H1 L2 (screen) [7]: 68.4
H1 L1 of H1 L1:H1 L2 (verification) [7]: 49
Substance: D3H44 heavy chain (Fab format) A139G_V190A

H2 L2 of H2 L2:H2 L1 (screen) [8]: 51.9
H2 L1 of H2 L2:H2 L1 (screen) [9]: 28.9
Substance: D3H44 heavy chain (Fab format) A139I

H1 L2 of H1 L1:H1 L2 (screen) [8]: 28
H1 L2 of H1 L1:H1 L2 (verification) [8]: 8.2
H1 L2 of H1 L1:H1 L2 (screen) [10]: 25.1
H1 L2 of H1 L1:H1 L2 (verification) [10]: 0.759
H1 L1 of H1 L1:H1 L2 (screen) [11]: 64.7
H1 L1 of H1 L1:H1 L2 (verification) [11]: 59.8
H1 L1 of H1 L1:H1 L2 (screen) [9]: 67.1
H1 L1 of H1 L1:H1 L2 (verification) [9]: 77
Substance: D3H44 heavy chain (Fab format) A139I_V190S

H2 L2 of H2 L2:H2 L1 (screen) [10]: 63.9
H2 L2 of H2 L2:H2 L1 (verification) [10]: 24.5 and 56.1
H2 L1 of H2 L2:H2 L1 (screen) [11]: 35.7
H2 L1 of H2 L2:H2 L1 (verification) [11]: 56.1 and 24.5
Substance: D3H44 heavy chain (Fab format) A139V

H1 L2 of H1 L1:H1 L2 (screen) [8]: 35.2
H1 L2 of H1 L1:H1 L2 (verification) [8]: 8.66
H1 L2 of H1 L1:H1 L2 (screen) [10]: 35.1
H1 L2 of H1 L1:H1 L2 (verification) [10]: 10.1
H1 L1 of H1 L1:H1 L2 (screen) [11]: 68.7
H1 L1 of H1 L1:H1 L2 (verification) [11]: 42.1
H1 L1 of H1 L1:H1 L2 (screen) [9]: 58.8
H1 L1 of H1 L1:H1 L2 (verification) [9]: 52.2
Substance: D3H44 heavy chain (Fab format) A139V_V190S

H2 L2 of H2 L2:H2 L1 (screen) [12]: 74.5
H2 L2 of H2 L2:H2 L1 (verification) [12]: 51.4
H2 L1 of H2 L2:H2 L1 (screen) [13]: 17.8
H2 L1 of H2 L2:H2 L1 (verification) [13]: 19.7
Substance: D3H44 heavy chain (Fab format) A139W_V190A
